# Results: the RNAGym collection of RNA variant scans (doi:10.1093/molbev/msab373)
# B1: Azoarcus group I ribozyme (parent)
# chain: GUGCCUUGCGCCGGGAAACCACGCAAGGGAUGGUGUCAAAUUCGGCGAAACCUAAGCGCCCGCCCGGGCGUAUGGCAACGCCGAGCCAAGCUUCGGCGCCUGCGCCGAUGAAGGUGUAGAGACUAGACGGCACCCACCUAAGGCAAACGCUAUGGUGAAGGCAUAGUCCAGGGAGUGGCGAAAGUCACACAAACCGG
# Variants of: B1
# Experiment: reverse-splicing fitness (ratio to wild type); higher = more active; in vitro selection; Mg2+ level not given
# In short: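 An in vitro group I ribozyme library with randomized positions was T7-transcribed and gel-purified. In triplicate, 10 pmol RNA in EPPS pH 7.5 was reacted with 50 pmoles of a 30-nt RNA substrate for 1 h at 37 °C across several added MgCl2 levels (1–48 mM), then stopped with EDTA. Products were reverse transcribed from a substrate-complementary primer, PCR-amplified and sequenced (HiSeq 4000). Fitness is a variant's read proportion after selection over that before, normalised to wild type.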
row,Variant,reverse-splicing fitness
1,A111C A120G A145G C169G U176G,0.00512
2,A111C A120G A145G C169G U176A,0.036
3,A111C A120G A145G C169G U176C,0.0552
4,A111C A120G A145G C150G C169A U176G,0.00703
5,A111C A120G A145G C150G C169A U176C,0.0131
6,A111C A120G A145G C150G C169A U176A,0.0128
7,A111C A120G A145G C150U U176G,0.00709
8,A111C A120G A145G C150U U176A,0.0273
9,A111C A120G A145G C150U U176C,0.04
10,A111C A120G A145G C150A,0.0307
11,A111C A120G A145G C150U,0.139
12,A111C A120G A145G C150G,0.0228
13,A111C A120G A145C C150G,0.0219
14,A111C A120G A145C C150U,0.0418
15,A111C A120G A145U C150U C169U U176A,0.034
16,A111C A120G A145U C150U C169U U176G,0.00595
17,A111C A120G A145U C150U C169U U176C,0.0353
18,A111C A120G A145C C150A U176C,0.0118
19,A111C A120G A145C C150A U176G,0.00357
20,A111C A120G A145C C150A U176A,0.0112
21,A111C A120G A145U C150U U176A,0.0265

row,Variant,reverse-splicing fitness
1,A111C A120G A145U C150G C169A U176C,0.0112
2,A111C A120G A145U C150G C169A U176G,0.00487
3,A111C A120G A145U C150G C169A U176A,0.0089
4,A111C A120G A145C C169U,0.146
5,A111C A120G A145C C169G,0.201
6,A111C A120G A145C C169A,0.0989
7,A111C A120G A145C C150U C169G U176G,0.00474
8,A111C A120G A145C C150U C169G U176A,0.0253
9,A111C A120G A145C C150U C169G U176C,0.0221
10,A111C A120G A145U C150U C169G,0.133
11,A111C A120G A145U C150U C169U,0.106
12,A111C A120G A145U C150U C169A,0.0731
13,A111C A120G A145U C150G U176G,0.00305
14,A111C A120G A145U C150G U176C,0.0169
15,A111C A120G A145U C150G U176A,0.00983
16,A111C A120G A145U C150U C169G U176A,0.0211
17,A111C A120G A145U C150U C169G U176C,0.0326
18,A111C A120G A145U C150U C169G U176G,0.00542
19,A111C A120G A145C C169U U176G,0.00492
20,A111C A120G A145C C169U U176A,0.0395
21,A111C A120G A145C C169U U176C,0.0394

row,Variant,reverse-splicing fitness
1,A111C A120G A145U C150U C169A U176A,0.0161
2,A111C A120G A145U C150U C169A U176G,0.00499
3,A111C A120G A145U C150U C169A U176C,0.0175
4,A111C A120G A145C C150U C169U U176G,0.00528
5,A111C A120G A145C C150U C169U U176A,0.0247
6,A111C A120G A145C C150U C169U U176C,0.0192
7,A111C A120G A145C C150G C169G U176A,0.00954
8,A111C A120G A145C C150G C169G U176G,0.00434
9,A111C A120G A145C C150G C169G U176C,0.00609
10,A111C A120G A145G C150A U176C,0.0252
11,A111C A120G A145G C150A U176A,0.0132
12,A111C A120G A145G C150A U176G,0.0068
13,A111C A120G A145U C150A C169U U176A,0.0198
14,A111C A120G A145U C150A C169U U176G,0.0045
15,A111C A120G A145U C150A C169U U176C,0.0173
16,A111C A120G A145G C169U U176C,0.045
17,A111C A120G A145G C169U U176A,0.0413
18,A111C A120G A145G C169U U176G,0.00448
19,A111C A120G A145G C150G C169U U176G,0.00619
20,A111C A120G A145G C150G C169U U176C,0.0161
21,A111C A120G A145G C150G C169U U176A,0.0115

row,Variant,reverse-splicing fitness
1,A111C A120G A145U C150G,0.0193
2,A111C A120G A145U C150A,0.0185
3,A111C A120G A145U C150U,0.113
4,A111C A120G A145C C150G C169U,0.0248
5,A111C A120G A145C C150G C169A,0.015
6,A111C A120G A145C C150G C169G,0.0238
7,A111C A120G A145G,0.189
8,A111C A120G A145U,0.179
9,A111C A120G A145C C150G C169A U176C,0.00838
10,A111C A120G A145C C150G C169A U176G,0.0045
11,A111C A120G A145C C150G C169A U176A,0.00964
12,A111C A120G A145G C169U,0.167
13,A111C A120G A145G C169A,0.123
14,A111C A120G A145G C169G,0.227
15,A111C A120G A145U C150G C169G U176G,0.00412
16,A111C A120G A145U C150G C169G U176C,0.00574
17,A111C A120G A145U C150G C169G U176A,0.00713
18,A111C A120G A145G C150U C169A,0.0989
19,A111C A120G A145G C150U C169G,0.167
20,A111C A120G A145G C150U C169U,0.139
